# Results from the supplement of paper PMC10567573.
# B1: ZNF8 (parent)
# chain: KPYTCSVCGKSFSRTTCLFLHLRT
# Variants of: B1
# Experiment: protein stability index of a GFP-peptide fusion (GPS, HEK-293T) (PSI 1-6); higher = more stable
# Settings: c terminus: a fixed tail appended
# 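Note: lentivirally expressed fusions sorted by FACS into six bins by GFP to DsRed ratio, PSI derived from sequencing read proportions per bin multiplied by bin number.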
row,Variant,protein stability index
1,KPYTCSVEGKSFSRTTCLFLHLRT [C8E],3.46
2,KPYTCSVDGKSFSRTTCLFLHLRT [C8D],3.17
3,KPYTCSVFGKSFSRTTCLFLHLRT [C8F],4.22
4,KPYTCSVKGKSFSRTTCLFLHLRT [C8K],2.45
5,KPYTCSVMGKSFSRTTCLFLHLRT [C8M],2.19
6,KPYTCSVQGKSFSRTTCLFLHLRT [C8Q],4.56
7,KPYTCSVLGKSFSRTTCLFLHLRT [C8L],2.28
8,KPYTCSVWGKSFSRTTCLFLHLRT [C8W],2.5
9,KPYTCSVVGKSFSRTTCLFLHLRT [C8V],1.97
10,KPYTCSVSGKSFSRTTCLFLHLRT [C8S],3.95
11,KPYTCSVRGKSFSRTTCLFLHLRT [C8R],3.12
12,KPYTCSVAGKSFSRTTCLFLHLRT [C8A],2.56
13,KPYTCSVIGKSFSRTTCLFLHLRT [C8I],2.07
14,KPYTTSVCGKSFSRTTCLFLHLRT [C5T],3.19
15,KPYTNSVCGKSFSRTTCLFLHLRT [C5N],2.43
16,KPYTWSVCGKSFSRTTCLFLHLRT [C5W],2.06
17,KPYTPSVCGKSFSRTTCLFLHLRT [C5P],2.38
18,KPYTYSVCGKSFSRTTCLFLHLRT [C5Y],2.21
19,KPYTQSVCGKSFSRTTCLFLHLRT [C5Q],2.29
20,KPYTSSVCGKSFSRTTCLFLHLRT [C5S],1.56
21,KPYTCSVCRKSFSRTTCLFLHLRT [G9R],2.2
22,KPYTCSVCSKSFSRTTCLFLHLRT [G9S],1.72
23,KPYTCSVCDKSFSRTTCLFLHLRT [G9D],1.8
24,KPYTCSVCQKSFSRTTCLFLHLRT [G9Q],1.89

row,Variant,protein stability index
1,KPYTCSVCTKSFSRTTCLFLHLRT [G9T],1.5
2,KPYTCSVCCKSFSRTTCLFLHLRT [G9C],2.43
3,KPYTCSVCKKSFSRTTCLFLHLRT [G9K],1.87
4,KPYTCSVCLKSFSRTTCLFLHLRT [G9L],2.25
5,KPYTCSVCAKSFSRTTCLFLHLRT [G9A],2.76
6,KPYTCSVCEKSFSRTTCLFLHLRT [G9E],1.71
7,KPYTCSVCHKSFSRTTCLFLHLRT [G9H],2.24
8,KPYTCSVCFKSFSRTTCLFLHLRT [G9F],2.12
9,KPYTCSVCMKSFSRTTCLFLHLRT [G9M],2.38
10,KPYTCSVCNKSFSRTTCLFLHLRT [G9N],1.49
11,KPYTCSVCYKSFSRTTCLFLHLRT [G9Y],1.97
12,KPYTCSVCPKSFSRTTCLFLHLRT [G9P],1.72
13,KPYTCSVCIKSFSRTTCLFLHLRT [G9I],2.92
14,KPYTCRVCGKSFSRTTCLFLHLRT [S6R],2.14
15,KPYTCAVCGKSFSRTTCLFLHLRT [S6A],2.4
16,KPYTCKVCGKSFSRTTCLFLHLRT [S6K],2.46
17,KPYTCMVCGKSFSRTTCLFLHLRT [S6M],1.63
18,KPYTCCVCGKSFSRTTCLFLHLRT [S6C],1.71
19,KPYTCYVCGKSFSRTTCLFLHLRT [S6Y],1.6
20,KPYTCGVCGKSFSRTTCLFLHLRT [S6G],2.48
21,KPYTCVVCGKSFSRTTCLFLHLRT [S6V],2.45
22,KPYTCTVCGKSFSRTTCLFLHLRT [S6T],1.73
23,KPYTCLVCGKSFSRTTCLFLHLRT [S6L],1.93
24,KPYTCEVCGKSFSRTTCLFLHLRT [S6E],1.85

row,Variant,protein stability index
1,KPYTCQVCGKSFSRTTCLFLHLRT [S6Q],2.13
2,KPYTCFVCGKSFSRTTCLFLHLRT [S6F],2.08
3,KPYTCIVCGKSFSRTTCLFLHLRT [S6I],1.41
4,KPYTCPVCGKSFSRTTCLFLHLRT [S6P],2.25
5,KPYTCWVCGKSFSRTTCLFLHLRT [S6W],1.66
6,KPYTCDVCGKSFSRTTCLFLHLRT [S6D],2.28
7,KPYTCHVCGKSFSRTTCLFLHLRT [S6H],2.15
8,KPYTCNVCGKSFSRTTCLFLHLRT [S6N],2.39
9,KPYTCSLCGKSFSRTTCLFLHLRT [V7L],2.87
10,KPYTCSCCGKSFSRTTCLFLHLRT [V7C],2.82
11,KPYTCSICGKSFSRTTCLFLHLRT [V7I],2.2
12,KPYTCSFCGKSFSRTTCLFLHLRT [V7F],2.8
13,KPYTCSMCGKSFSRTTCLFLHLRT [V7M],2.29
14,KPYTCSDCGKSFSRTTCLFLHLRT [V7D],1.71
15,KPYTCSYCGKSFSRTTCLFLHLRT [V7Y],2.3
16,KPYTCSHCGKSFSRTTCLFLHLRT [V7H],1.44
17,KPYTCSWCGKSFSRTTCLFLHLRT [V7W],1.85
18,KPYTCSQCGKSFSRTTCLFLHLRT [V7Q],3.32
19,KPYTCSGCGKSFSRTTCLFLHLRT [V7G],2.3
20,KPYTCSPCGKSFSRTTCLFLHLRT [V7P],2.7
21,KPYTCSRCGKSFSRTTCLFLHLRT [V7R],1.68
22,KPYTCSSCGKSFSRTTCLFLHLRT [V7S],2.04
23,KPYTCSECGKSFSRTTCLFLHLRT [V7E],2.09
24,KPYTCSTCGKSFSRTTCLFLHLRT [V7T],1.91

row,Variant,protein stability index
1,KPYTCSNCGKSFSRTTCLFLHLRT [V7N],2.15
2,KPYTCSKCGKSFSRTTCLFLHLRT [V7K],1.75
3,KPYTCSACGKSFSRTTCLFLHLRT [V7A],2.12
4,KPYTCSVCGCSFSRTTCLFLHLRT [K10C],1.77
5,KPYTCSVCGQSFSRTTCLFLHLRT [K10Q],2.18
6,KPYTCSVCGMSFSRTTCLFLHLRT [K10M],2.88
7,KPYTCSVCGFSFSRTTCLFLHLRT [K10F],1.85
8,KPYTCSVCGASFSRTTCLFLHLRT [K10A],1.79
9,KPYTCSVCGLSFSRTTCLFLHLRT [K10L],1.94
10,KPYTCSVCGYSFSRTTCLFLHLRT [K10Y],2.21
11,KPYTCSVCGPSFSRTTCLFLHLRT [K10P],2.84
12,KPYTCSVCGSSFSRTTCLFLHLRT [K10S],1.52
13,KPYTCSVCGWSFSRTTCLFLHLRT [K10W],2.83
14,KPYTCSVCGGSFSRTTCLFLHLRT [K10G],2.24
15,KPYTCSVCGRSFSRTTCLFLHLRT [K10R],1.87
16,KPYTCSVCGNSFSRTTCLFLHLRT [K10N],2
17,KPYTCSVCGHSFSRTTCLFLHLRT [K10H],1.86
18,KPYTCSVCGISFSRTTCLFLHLRT [K10I],1.65
19,KPYTCSVCGESFSRTTCLFLHLRT [K10E],1.47
20,KPYTCSVCGTSFSRTTCLFLHLRT [K10T],2.25
21,KPYTCSVCGDSFSRTTCLFLHLRT [K10D],2.03
22,KPYTCSVCGVSFSRTTCLFLHLRT [K10V],1.83
